# Experimental data taken from patent publication US20140087995A1 (published 2014).
# Numbered stars: 1 amine (or outer) side, 2 acyl side, 3 side chain; on linkers, the order of the positions; unused ones are H or OH. Bridge positions count the residues as written; N and C are the ends. Side chains are listed from the residue outwards. Ends that are not written are not given here. * marks the point of attachment. C20 diacid = O=C(O)CCCCCCCCCCCCCCCCCCC(=O)*; γGlu = O=C(O)[C@H](CCC(=O)[*:2])N[*:1]
# T1: human calcitonin receptor (human, UniProt P30988 25-474)
# T1 construct: whole, on cells; also called hCTR; hCT
# T1 sequence (looked up): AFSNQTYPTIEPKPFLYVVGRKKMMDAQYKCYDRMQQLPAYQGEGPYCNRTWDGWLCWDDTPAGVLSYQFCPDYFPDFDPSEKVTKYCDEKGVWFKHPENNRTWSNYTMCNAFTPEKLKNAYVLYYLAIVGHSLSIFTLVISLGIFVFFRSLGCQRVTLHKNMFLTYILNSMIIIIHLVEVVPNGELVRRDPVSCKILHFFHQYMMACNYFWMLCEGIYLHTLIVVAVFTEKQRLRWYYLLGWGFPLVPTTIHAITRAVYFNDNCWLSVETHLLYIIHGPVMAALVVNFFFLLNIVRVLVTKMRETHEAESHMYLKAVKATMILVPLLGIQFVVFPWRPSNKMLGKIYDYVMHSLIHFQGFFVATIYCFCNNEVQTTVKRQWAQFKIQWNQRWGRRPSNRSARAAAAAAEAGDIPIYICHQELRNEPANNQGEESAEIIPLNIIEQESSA
# Key:
# [1] = biological target: T1, human calcitonin receptor; test: SPA radioligand competition (125I-calcitonin), membranes of BHK cells with human calcitonin receptor
# Procedure, shortened: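 BHK hCTR membranes 35 ng/μL + SPA beads 0.05 mg/well; buffer 50 mM Hepes pH 7.4, 1 mM CaCl2, 5 mM MgCl₂, 0.1% OA, 0.02% Tween20. 120 min, 25° C., shaking. Scintillation count; IC50 by one-site binding competition.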
# [2] = biological target: T1, human calcitonin receptor; test: ratio of IC50 at human calcitonin receptor to IC50 at human amylin receptor (SPA competition assays)
# Procedure, shortened: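 Competition binding by SPA uses membrane preparations (35 ng/μL final) in pH 7.4 Hepes buffer with 1 mM CaCl2 and 5 mM MgCl₂. Incubation lasts 120 min at 25° C, and IC₅₀ comes from one-site fitting.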
IC50 [1],Ratio hCT/hAmylin binding [2],Binder
6.86 nM,46.3,"K([γGlu-C20 diacid])CNTATCATQRLAAFLRHSSPNFGAIPSSTNVGPNTY-NH2 (disulfide 2-7; N-terminus assumed; SMILES CC[C@H](C)[C@H](NC(=O)[C@H](C)NC(=O)CNC(=O)[C@H](Cc1ccccc1)NC(=O)[C@H](CC(N)=O)NC(=O)[C@@H]1CCCN1C(=O)[C@H](CO)NC(=O)[C@H](CO)NC(=O)[C@H](Cc1c[nH]cn1)NC(=O)[C@H](CCCNC(=N)N)NC(=O)[C@H](CC(C)C)NC(=O)[C@H](Cc1ccccc1)NC(=O)[C@H](C)NC(=O)[C@H](C)NC(=O)[C@H](CC(C)C)NC(=O)[C@H](CCCNC(=N)N)NC(=O)[C@H](CCC(N)=O)NC(=O)[C@@H](NC(=O)[C@H](C)NC(=O)[C@@H]1CSSC[C@H](NC(=O)[C@@H](N)CCCCNC(=O)CC[C@H](NC(=O)CCCCCCCCCCCCCCCCCCC(=O)O)C(=O)O)C(=O)N[C@@H](CC(N)=O)C(=O)N[C@@H]([C@@H](C)O)C(=O)N[C@@H](C)C(=O)N[C@@H]([C@@H](C)O)C(=O)N1)[C@@H](C)O)C(=O)N1CCC[C@H]1C(=O)N[C@@H](CO)C(=O)N[C@@H](CO)C(=O)N[C@H](C(=O)N[C@@H](CC(N)=O)C(=O)N[C@H](C(=O)NCC(=O)N1CCC[C@H]1C(=O)N[C@@H](CC(N)=O)C(=O)N[C@H](C(=O)N[C@@H](Cc1ccc(O)cc1)C(N)=O)[C@@H](C)O)C(C)C)[C@@H](C)O, also called compound 94)"
6.3 nM,38.6,K([γGlu-C20 diacid])CNTATCATQRLAEFLRHSSPNFGAIPSSTNVGPRTY-NH2 (disulfide 2-7; N-terminus assumed; SMILES CC[C@H](C)[C@H](NC(=O)[C@H](C)NC(=O)CNC(=O)[C@H](Cc1ccccc1)NC(=O)[C@H](CC(N)=O)NC(=O)[C@@H]1CCCN1C(=O)[C@H](CO)NC(=O)[C@H](CO)NC(=O)[C@H](Cc1c[nH]cn1)NC(=O)[C@H](CCCNC(=N)N)NC(=O)[C@H](CC(C)C)NC(=O)[C@H](Cc1ccccc1)NC(=O)[C@H](CCC(=O)O)NC(=O)[C@H](C)NC(=O)[C@H](CC(C)C)NC(=O)[C@H](CCCNC(=N)N)NC(=O)[C@H](CCC(N)=O)NC(=O)[C@@H](NC(=O)[C@H](C)NC(=O)[C@@H]1CSSC[C@H](NC(=O)[C@@H](N)CCCCNC(=O)CC[C@H](NC(=O)CCCCCCCCCCCCCCCCCCC(=O)O)C(=O)O)C(=O)N[C@@H](CC(N)=O)C(=O)N[C@@H]([C@@H](C)O)C(=O)N[C@@H](C)C(=O)N[C@@H]([C@@H](C)O)C(=O)N1)[C@@H](C)O)C(=O)N1CCC[C@H]1C(=O)N[C@@H](CO)C(=O)N[C@@H](CO)C(=O)N[C@H](C(=O)N[C@@H](CC(N)=O)C(=O)N[C@H](C(=O)NCC(=O)N1CCC[C@H]1C(=O)N[C@@H](CCCNC(=N)N)C(=O)N[C@H](C(=O)N[C@@H](Cc1ccc(O)cc1)C(N)=O)[C@@H](C)O)C(C)C)[C@@H](C)O)
36.4 nM,46.1,"K([γGlu-C20 diacid])CNTATCATQRLANFLRHSSPNFGAIPSSTNVGRNTY-NH2 (disulfide 2-7; N-terminus assumed; SMILES CC[C@H](C)[C@H](NC(=O)[C@H](C)NC(=O)CNC(=O)[C@H](Cc1ccccc1)NC(=O)[C@H](CC(N)=O)NC(=O)[C@@H]1CCCN1C(=O)[C@H](CO)NC(=O)[C@H](CO)NC(=O)[C@H](Cc1c[nH]cn1)NC(=O)[C@H](CCCNC(=N)N)NC(=O)[C@H](CC(C)C)NC(=O)[C@H](Cc1ccccc1)NC(=O)[C@H](CC(N)=O)NC(=O)[C@H](C)NC(=O)[C@H](CC(C)C)NC(=O)[C@H](CCCNC(=N)N)NC(=O)[C@H](CCC(N)=O)NC(=O)[C@@H](NC(=O)[C@H](C)NC(=O)[C@@H]1CSSC[C@H](NC(=O)[C@@H](N)CCCCNC(=O)CC[C@H](NC(=O)CCCCCCCCCCCCCCCCCCC(=O)O)C(=O)O)C(=O)N[C@@H](CC(N)=O)C(=O)N[C@@H]([C@@H](C)O)C(=O)N[C@@H](C)C(=O)N[C@@H]([C@@H](C)O)C(=O)N1)[C@@H](C)O)C(=O)N1CCC[C@H]1C(=O)N[C@@H](CO)C(=O)N[C@@H](CO)C(=O)N[C@H](C(=O)N[C@@H](CC(N)=O)C(=O)N[C@H](C(=O)NCC(=O)N[C@@H](CCCNC(=N)N)C(=O)N[C@@H](CC(N)=O)C(=O)N[C@H](C(=O)N[C@@H](Cc1ccc(O)cc1)C(N)=O)[C@@H](C)O)C(C)C)[C@@H](C)O, also called compound 79) [N^ε1-[(4S)-4-carboxy-4-(19-carboxynonadecanoylamino)butanoyl]-[Arg17,Pro21,Pro27,Arg34]-h-amylin]"
6.62 nM,28.5,K([γGlu-C20 diacid])CNTATCATQRLAEFLRHSSPNFGAIPSSTNVGRETY-NH2 (disulfide 2-7; N-terminus assumed; SMILES CC[C@H](C)[C@H](NC(=O)[C@H](C)NC(=O)CNC(=O)[C@H](Cc1ccccc1)NC(=O)[C@H](CC(N)=O)NC(=O)[C@@H]1CCCN1C(=O)[C@H](CO)NC(=O)[C@H](CO)NC(=O)[C@H](Cc1c[nH]cn1)NC(=O)[C@H](CCCNC(=N)N)NC(=O)[C@H](CC(C)C)NC(=O)[C@H](Cc1ccccc1)NC(=O)[C@H](CCC(=O)O)NC(=O)[C@H](C)NC(=O)[C@H](CC(C)C)NC(=O)[C@H](CCCNC(=N)N)NC(=O)[C@H](CCC(N)=O)NC(=O)[C@@H](NC(=O)[C@H](C)NC(=O)[C@@H]1CSSC[C@H](NC(=O)[C@@H](N)CCCCNC(=O)CC[C@H](NC(=O)CCCCCCCCCCCCCCCCCCC(=O)O)C(=O)O)C(=O)N[C@@H](CC(N)=O)C(=O)N[C@@H]([C@@H](C)O)C(=O)N[C@@H](C)C(=O)N[C@@H]([C@@H](C)O)C(=O)N1)[C@@H](C)O)C(=O)N1CCC[C@H]1C(=O)N[C@@H](CO)C(=O)N[C@@H](CO)C(=O)N[C@H](C(=O)N[C@@H](CC(N)=O)C(=O)N[C@H](C(=O)NCC(=O)N[C@@H](CCCNC(=N)N)C(=O)N[C@@H](CCC(=O)O)C(=O)N[C@H](C(=O)N[C@@H](Cc1ccc(O)cc1)C(N)=O)[C@@H](C)O)C(C)C)[C@@H](C)O)
137 nM,146,"K([γGlu-C20 diacid])CNTATCATQRLARFLRHSSPNFGAIPSSTNVGSNTY-NH2 (disulfide 2-7; N-terminus assumed; SMILES CC[C@H](C)[C@H](NC(=O)[C@H](C)NC(=O)CNC(=O)[C@H](Cc1ccccc1)NC(=O)[C@H](CC(N)=O)NC(=O)[C@@H]1CCCN1C(=O)[C@H](CO)NC(=O)[C@H](CO)NC(=O)[C@H](Cc1c[nH]cn1)NC(=O)[C@H](CCCNC(=N)N)NC(=O)[C@H](CC(C)C)NC(=O)[C@H](Cc1ccccc1)NC(=O)[C@H](CCCNC(=N)N)NC(=O)[C@H](C)NC(=O)[C@H](CC(C)C)NC(=O)[C@H](CCCNC(=N)N)NC(=O)[C@H](CCC(N)=O)NC(=O)[C@@H](NC(=O)[C@H](C)NC(=O)[C@@H]1CSSC[C@H](NC(=O)[C@@H](N)CCCCNC(=O)CC[C@H](NC(=O)CCCCCCCCCCCCCCCCCCC(=O)O)C(=O)O)C(=O)N[C@@H](CC(N)=O)C(=O)N[C@@H]([C@@H](C)O)C(=O)N[C@@H](C)C(=O)N[C@@H]([C@@H](C)O)C(=O)N1)[C@@H](C)O)C(=O)N1CCC[C@H]1C(=O)N[C@@H](CO)C(=O)N[C@@H](CO)C(=O)N[C@H](C(=O)N[C@@H](CC(N)=O)C(=O)N[C@H](C(=O)NCC(=O)N[C@@H](CO)C(=O)N[C@@H](CC(N)=O)C(=O)N[C@H](C(=O)N[C@@H](Cc1ccc(O)cc1)C(N)=O)[C@@H](C)O)C(C)C)[C@@H](C)O, also called compound 83) [N^ε1-[(4S)-4-carboxy-4-(19-carboxynonadecanoylamino)butanoyl]-[Arg14,Arg17,Pro21,Pro27]-h-amylin]"
